According to PMC3369926, “TRAM Is Involved in IL-18 Signaling and Functions as a Sorting Adaptor for MyD88” (PLoS ONE, 2012):

T1: GST-IL-18Rβ-TIR (amino acid residues 407-599) (UniProt O95256 407-599)
T1 construct: IL-18Rβ (formerly IL-1AcPL), cytosolic TIR domain, residues 407-599; also called IL-18Rβ TIR domain; IL-1AcPL TIR; source: purified as GST fusion protein (pGEX vector), by methods previously described
T1 sequence (looked up): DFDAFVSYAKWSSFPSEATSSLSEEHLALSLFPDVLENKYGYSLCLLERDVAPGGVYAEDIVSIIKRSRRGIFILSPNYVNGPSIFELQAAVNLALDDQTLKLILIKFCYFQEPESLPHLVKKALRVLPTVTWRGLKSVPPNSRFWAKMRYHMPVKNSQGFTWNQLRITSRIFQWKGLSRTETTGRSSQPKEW

B1: TRAM-TIR (amino acid residues 66-235) (domain or fragment, human, UniProt Q86XR7 66-235, looked up)
chain: EEMFEEEAEEEVFLKFVILHAEDDTDEALRVQNLLQDDFGIKPGIIFAEMPCGRQHLQNLDDAVNGSAWTILLLTENFLRDTWCNFQFYTSLMNSVNRQHKYNSVIPMRPLNNPLPRERTPFALQTINALEEESRGFPTQVERIFQESVYKTQQTIWKETRNMVQRQFIA
notes: TRAM (TICAM-2), human, TIR domain, residues 66-235; also called TIR domain of human TRAM; TRAM TIR domain; source: purified; subcloned into a pGEX vector, obtained by a similar procedure as previously described for the MyD88-TIR

The binders below were run against T1, GST-IL-18Rβ-TIR (amino acid residues …) (assay: pull-down; GST fusion proteins held on Glutathione Sepharose 4B, three hours at 4°C; four washes with 20 mM potassium phosphate (pH 6.0), 100 mM KCl, 0.1 mM EDTA, 10 mM DTT, 0.5% Triton X100; SDS-PAGE with Coomassie staining; in triplicate). Settings: both partners purified.

Binder	binding result
B1	binds

The binders below were run against B1 in the same assay as above. Settings: both partners purified.

Binder	binding result
GST-MyD88-TIR (wild type, amino acid residues 148-296) (domain or fragment, UniProt Q99836 148-296, looked up, MyD88, TIR domain, amino acid residues 148-296; also called wild-type MyD88-TIR; MyD88 TIR domain; source: purified as GST fusion protein (pGEX vector), by methods previously described) TTLDDPLGHMPERFDAFICYCPSDIQFVQEMIRQLEQTNYRLKLCVSDRDVLPGTCVWSIASELIEKRCRRMVVVVSDDYLQSKECDFQTKFALSLSPGAHQKRLIPIKYKAMKKEFPSILRFITVCDYTNPCTKSWFWTRLAKALSLP	binds
GST-IL-18Rα-TIR (amino acid residues 374-541) (domain or fragment, UniProt Q13478 374-541, looked up, IL-18Rα (formerly IL-1Rrp), cytosolic TIR domain, residues 374-541; also called IL-18Rα TIR domain; IL-1Rrp TIR; source: purified as GST fusion protein (pGEX vector), by methods previously described) TYDAFVSYLKECRPENGEEHTFAVEILPRVLEKHFGYKLCIFERDVVPGGAVVDEIHSLIEKSRRLIIVLSKSYMSNEVRYELESGLHEALVERKIKIILIEFTPVTDFTFLPQSLKLLKSHRVLKWKADKSLSYNSRFWKNLLYLMPAKTVKPGRDEPEVLPVLSES	binds
GST-MyD88-TIR R196A (148-296) (domain or fragment, UniProt Q99836 148-296, looked up, MyD88, TIR domain, residues 148-296, with R196A; also called Site II mutant R196A; source: purified as GST fusion protein (pGEX vector), by methods previously described) TTLDDPLGHMPERFDAFICYCPSDIQFVQEMIRQLEQTNYRLKLCVSDADVLPGTCVWSIASELIEKRCRRMVVVVSDDYLQSKECDFQTKFALSLSPGAHQKRLIPIKYKAMKKEFPSILRFITVCDYTNPCTKSWFWTRLAKALSLP	binds
GST-MyD88-TIR R288A (148-296) (domain or fragment, UniProt Q99836 148-296, looked up, MyD88, TIR domain, residues 148-296, with R288A; also called Site III mutant R288A; source: purified as GST fusion protein (pGEX vector), by methods previously described) TTLDDPLGHMPERFDAFICYCPSDIQFVQEMIRQLEQTNYRLKLCVSDRDVLPGTCVWSIASELIEKRCRRMVVVVSDDYLQSKECDFQTKFALSLSPGAHQKRLIPIKYKAMKKEFPSILRFITVCDYTNPCTKSWFWTALAKALSLP	binds
GST-MyD88-TIR R217A (148-296) (domain or fragment, UniProt Q99836 148-296, looked up, MyD88, TIR domain, residues 148-296, with R217A; also called Site I mutant R217A; source: purified as GST fusion protein (pGEX vector), by methods previously described) TTLDDPLGHMPERFDAFICYCPSDIQFVQEMIRQLEQTNYRLKLCVSDRDVLPGTCVWSIASELIEKRCARMVVVVSDDYLQSKECDFQTKFALSLSPGAHQKRLIPIKYKAMKKEFPSILRFITVCDYTNPCTKSWFWTRLAKALSLP	binds
